In US20250270343A1 (Alector, published 2025):
Positions count from the first letter of the chain named.

T1: soluble mouse GPNMB-Fc polypeptide (mouse IgG2A Fc) (mouse, UniProt Q99P91 23-502)
T1 construct: extracellular domain; bought (R&D System); also called moGPNMB-Fc; mGPNMB-Fc; not shown: Fc region of mouse IgG2A
T1 sequence (looked up): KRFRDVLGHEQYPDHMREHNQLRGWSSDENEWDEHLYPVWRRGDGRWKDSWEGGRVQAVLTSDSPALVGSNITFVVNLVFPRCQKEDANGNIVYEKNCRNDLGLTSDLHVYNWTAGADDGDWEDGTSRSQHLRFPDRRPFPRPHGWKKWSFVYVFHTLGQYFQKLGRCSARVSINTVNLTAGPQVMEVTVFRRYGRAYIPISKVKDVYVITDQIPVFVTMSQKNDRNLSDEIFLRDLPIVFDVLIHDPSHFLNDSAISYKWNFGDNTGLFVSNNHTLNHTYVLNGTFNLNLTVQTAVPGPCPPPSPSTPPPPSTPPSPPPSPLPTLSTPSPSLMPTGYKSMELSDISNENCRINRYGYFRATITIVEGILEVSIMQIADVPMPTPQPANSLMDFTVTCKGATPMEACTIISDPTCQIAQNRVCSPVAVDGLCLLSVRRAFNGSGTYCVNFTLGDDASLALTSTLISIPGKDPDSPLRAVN

T2: soluble cynomolgus GPNMB (recombinant extracellular domain) (cynomolgus, UniProt Q14956 23-499 (human entry), limits assumed)
T2 chain: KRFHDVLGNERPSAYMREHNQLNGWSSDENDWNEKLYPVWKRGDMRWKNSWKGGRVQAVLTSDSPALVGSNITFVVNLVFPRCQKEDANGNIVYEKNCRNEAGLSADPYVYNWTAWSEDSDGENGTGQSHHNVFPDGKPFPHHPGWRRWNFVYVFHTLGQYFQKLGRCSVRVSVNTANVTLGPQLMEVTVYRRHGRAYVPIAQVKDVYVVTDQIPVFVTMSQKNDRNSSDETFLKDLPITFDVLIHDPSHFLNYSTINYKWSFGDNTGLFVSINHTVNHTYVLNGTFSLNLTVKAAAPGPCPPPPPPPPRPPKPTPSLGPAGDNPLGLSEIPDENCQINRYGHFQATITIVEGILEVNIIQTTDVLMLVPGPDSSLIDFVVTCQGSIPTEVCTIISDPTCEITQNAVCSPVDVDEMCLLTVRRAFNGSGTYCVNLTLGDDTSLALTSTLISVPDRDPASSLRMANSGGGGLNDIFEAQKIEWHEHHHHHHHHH

T3: full-length untagged human GPNMB expressed on cells (human, UniProt Q14956 23-572)
T3 sequence: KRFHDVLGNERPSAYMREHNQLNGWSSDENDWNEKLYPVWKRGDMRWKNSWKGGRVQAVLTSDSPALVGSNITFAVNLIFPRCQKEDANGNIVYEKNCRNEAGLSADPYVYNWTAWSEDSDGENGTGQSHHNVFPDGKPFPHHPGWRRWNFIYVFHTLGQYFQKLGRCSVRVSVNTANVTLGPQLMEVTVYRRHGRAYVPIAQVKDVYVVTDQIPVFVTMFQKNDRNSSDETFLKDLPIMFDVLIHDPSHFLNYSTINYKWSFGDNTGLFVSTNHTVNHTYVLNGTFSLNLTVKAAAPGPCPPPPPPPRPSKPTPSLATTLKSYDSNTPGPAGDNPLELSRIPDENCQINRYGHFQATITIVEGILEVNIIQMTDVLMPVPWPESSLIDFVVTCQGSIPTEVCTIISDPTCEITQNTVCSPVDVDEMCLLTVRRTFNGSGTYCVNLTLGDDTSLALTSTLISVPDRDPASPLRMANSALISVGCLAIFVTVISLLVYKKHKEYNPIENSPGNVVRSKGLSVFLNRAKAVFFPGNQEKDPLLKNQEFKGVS

B1: anti-GPNMB antibody GPN-52 (antibody, human IgG1, V domains shown)
VH: DVQLQESGPGLVKPSQTVFLTCTVTGISITTGNYRWSWIRQFPGNKLEWIGYIYYSGTITYNPSLTSRITITRDTPKNEFFLEMNSLTAEDTATYYCARDLTHWYFDVWGTGTTVTVSS
VL: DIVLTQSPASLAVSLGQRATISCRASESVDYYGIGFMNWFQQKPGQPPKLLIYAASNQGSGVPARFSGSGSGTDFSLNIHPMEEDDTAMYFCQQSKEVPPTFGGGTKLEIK
notes: chimeric
B2: anti-GPNMB antibody GPN-61 (antibody, human IgG1, V domains shown)
VH: B1 VH with I69T, E79Q, N85S, Y96F, T102R
VL: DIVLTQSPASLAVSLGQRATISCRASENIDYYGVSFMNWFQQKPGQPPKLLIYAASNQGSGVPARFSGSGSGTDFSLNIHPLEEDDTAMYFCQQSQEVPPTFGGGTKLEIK
notes: chimeric
B3: anti-GPNMB antibody GPN-35 (antibody, human IgG1, V domains shown)
VH: EVQLVESGGGSVRPGRSLKLSCAAAGFTFSDYYMTWVRQAPTKGLEWVASINHDGGGTYYRDSVKGRFTISRDNARSSLYLQMDSLRSEDTGTYYCTTRAGWHWGQGVMVTVSS
VL: DIQMTQSPASLSASLGETVSIECLASEDIYNYLTWYQQKPGKSPQVLIYSASGLQDGVPSRFSGSGSGRQYSLKINGLESEDAATYFCLQDSEYPLTFGSGTKLEIK
notes: chimeric
B4: anti-GPNMB antibody GPN-43 (antibody, human IgG1, V domains shown)
VH: EVQLQQSGPELVKPGASVKISCKASGYTFTDYYMNWVRQSHGKSLEWIGDINPYHGGSTYNQKIKVKATLTVDKSSSTAYMELRSLTSEDSAVYYCARNWPYFDYWGQGTTLTVSS
VL: DIQMTQSPASLSASVGETVTITCRASENIYSFLVWYQQKQGKSPQLLVYNAKTLAEGVPSRFSGSGSGTQFSLKISSLQPEDFGSYYCQHHFGTPPYTFGGGTKLEIK
notes: chimeric
B5: anti-GPNMB antibody GPN-48 (antibody, human IgG1, V domains shown)
VH: QVQLQQSGPELVKPGASVKLSCRASGYGFSSFWMNWVKQRPGKGLEWIGRIYPGKGDTLYNGKFKDKATLTADESSSTAYMQLSSLTSEDSAVYFCARSIYYYDYWYFDVWDTGTTVTVSS
VL: DIVMTQSHKFMSTSVGDRVNITCKASQDVNSAIAWYQQKPGQSPKLLIYSASYRFIGVPDRFTGSGSGTGFTFTISSVQAEDLAVYYCQQHYTTPLTFGAGTKLELK
notes: chimeric
B6: anti-GPNMB antibody GPN-38 (antibody, human IgG1, V domains shown)
VH: QVQLQQPGAELVRPGTSVRLSCKASGYTFTSYWIHWVKQRPGRGLEWIGVIDPSDSYTNYNQQFNVKATLTVDTSSSAAYMQLSSLTSEDSAVYYCARGLITAVNWYFDVWGTGTTVTVSS
VL: DIQMTQSPASLSTSVGEIVTITCRASENIYSYLTWYQQKQGKSPQLLVYNAKTLAEGVPSRFSGSGSGTQFSLKINSLQPEDFGTYYCQHHYGTPLTFGSGTKLEIK
notes: chimeric
B7: anti-GPNMB antibody GPN-41 (antibody, human IgG1, V domains shown)
VH: QLQLQQSGTEVVKPGASVKIPCKASGYAFSSYWMNWVKQRPGKGLEWIGQIYPGDGDTNDNGKFEGKATLTVDKSSNTAYIQLSSLTSEDSAVYFCARSPLHLRGSMDYWGQGTSVTVSS
VL: SIVMTQTPKFLLVSAGDRVTITCKASQSVSNDVAWFQQKPGQSPELLIYSASNRYTGVPDRFTASGYGTDFTFTISAVQAEDLAVYFCQQNYYSPFTFGGGTRLEIK
notes: chimeric
B8: anti-GPNMB antibody GPN-65 (antibody, human IgG1, V domains shown)
VH: B7 VH
VL: B7 VL with A64G, A77T
notes: chimeric
B9: anti-GPNMB antibody GPN-42 (antibody, human IgG1, V domains shown)
VH: DVKLVESGEDLVKPGGSLKLSCAASGFTFSSYAMSWVRQTPEKRLEWVAYISSGGDYIYYADTVKGRFTISRDNARNTLYLQMSSLKSEDTAMYYCTRDRYYDYDVRDYYTMDYWGQGTSVTVSS
VL: DVMMTQTPLSLPVSLGDQASISCRSSQSLVHSNGNTYLHWFLQKPGQSPKLLIFRVSNRFSGVPDRFSGRGSGTDFTLKISRVEAEDLGVYFCSQTTHVPRTFGGGTTLEIK
notes: chimeric
B10: anti-GPNMB antibody GPN-37 (antibody, human IgG1, V domains shown)
VH: EVQLVESGGGLVQPGRSLKLSCAASGFTFSSKSGMAWVRQAPTKGLEWVASISNGGGDTYYRDSVKGRFTISRDNAKNTQYLQMDSLRPEDTATYYCARHRDYGYDAYFDYWGQGVMVTVSS
VL: DIQMTQSPASLSASLGETVTIECLASEDIYSSLAWYQQKPGKSPQLLIYDASSLQDGVPSRFSGSESGTQYSLEINSLQSEDAATYFCQQHHDYPYTFGAGTKLELK
notes: chimeric

These binders were tested against T1, soluble mouse GPNMB-Fc polypeptide … (assay: FACS, blocking of moGPNMB-Fc binding to SVEC4-10 cells).
Experimental: Purified full-length anti-GPNMB antibodies of the present disclosure were evaluated for their ability to block binding of moGPNMB-Fc to SVEC4-10 cells to determine the ligand blocking potency of each anti-GPNMB monoclonal antibody. Briefly, 2 μg/mL moGPNMB-Fc (mouse IgG2A Fc) diluted in binding buffer was pre-complexed with increasing concentrations of anti-GPNMB antibody of the present disclosure or human IgG1 isotype control antibody in 96-well plates. Subsequently, 100,000 SVEC4-10 cells were added per well and incubated on ice for 30 minutes. Soluble moGPNMB-Fc bound to cell surface was detected with fluorescent anti-mouse IgG2A secondary antibody and measured on FACSCanto. (FIG. 5A and FIG. 5B) IC50 values (for antibodies that block moGPNMB-Fc cell binding) and EC50 values (for antibodies that enhance moGPNMB-Fc cell binding) based on changes in MFI values were calculated (average+standard error) for each anti-GPNMB antibody and listed in Table 6. In Table 6, NA indicates no activity. […] In all cases, certain anti-GPNMB antibodies of the present disclosure blocked soluble GPNMB binding to cells, while other anti-GPNMB antibodies of the present disclosure enhanced soluble GPNMB binding to cells.

IC50 [nM] | Binder
1 | B1
0.77 | B2
1.17 | B3
5.37 | B4
1.2 | B5

Biological target: T2, soluble cynomolgus GPNMB (recombinant …)
Assay: SPR binding
Experimental: Binding kinetics of human anti-GPNMB IgG1 antibodies of the present disclosure to human, cynomolgus, and mouse GPNMB were evaluated using a Carterra LSA instrument (Carterra, Salt Lake City, UT). […] A HC200M sensor chip (Carterra) was activated using the single channel flow cell with a 7-minute injection of a 1:1:1 mixture of 100 mM MES pH 5.5, 100 mM sulfo-NHS, 400 mM EDC (all reconstituted in MES pH 5.5; 100 μl of each mixed in vial immediately before running assay). After switching to the multi-channel array flow cell, the antibodies were injected over the activated chip in a 96-spot array for 15 minutes. The remaining unconjugated active groups on the chip were then blocked by injecting 1M Ethanolamine pH 8.5 (Carterra) for 7 minutes using the single channel flow cell.
After priming with running buffer (HBS-EP+, Teknova) with 0.5 mg/ml BSA (Sigma), the immobilized anti-GPNMB antibodies were tested for their ability to bind to several forms of recombinant GPNMB extracellular domain, including human, cynomolgus, and mouse orthologs as described above. Estimates of affinity were generated by injecting each analyte over the entire antibody array using the single channel flow cell. GPNMB analytes were diluted to 2.5, 7.4, 22, 67, 200, and 600 nM in running buffer, and injected in serial from lowest to highest concentration without regeneration. Two buffer blanks were run between each series (one species per series). Data were processed and analyzed using Kinetics high-throughput kinetics analysis software (Carterra).

binding result | Binder
binds | B6
binds | B4
binds | B5
binds | B7
binds | B8
binds | B9

The binders below were run against T3, full-length untagged human GPNMB … (assay: cell-based or functional assay).

IC50 (read off the curve) of the loss of cell surface GPNMB (MFI), internalization assay on human macrophages [nM] | Binder
~2 | B1
~2 | B2
~2 | B10
~2 | B8
